# Measured values: PMC12016518
# Target: T1, VPA1365-His (Vibrio parahaemolyticus RIMD2210633) (UniProt Q87GF1)
# T1 sequence: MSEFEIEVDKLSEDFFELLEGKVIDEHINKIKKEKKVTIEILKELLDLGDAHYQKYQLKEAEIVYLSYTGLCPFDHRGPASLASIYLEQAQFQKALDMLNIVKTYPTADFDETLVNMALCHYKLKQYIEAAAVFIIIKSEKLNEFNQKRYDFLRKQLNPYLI
# Assay: EMSA
# Details: EMSA: 30 nM 5'-FAM probe, 20 µL with 4 µL 5x buffer (10 mM NaCl, 0.1 mM DTT, 0.1 mM EDTA, 10 mM Tris, pH 7.4; unclear if 5x or final), 25°C, 0.5 h, 6% PAGE
row,Sequence,binding
1,TGCCTGCAGGTCGACGATCACAAGCAACAAAATTCATATTACTTCAACTAACTCAGTAAGTTGTAAGTAATTCATCATTAAAAAGGGCCACTAGGCCCTTTCTTTTTATCCATTAAAAAATAGCATTACTCGCAAAACTCTGCATACGATATGCAACTTTCTACCAAAGAGTTTTACCTCACTCGAGACCCCATCTCTTCCCCATTTTCAACCTTTATGAAGTCTCCATAATCCTTCGCTAATGCAAGGGCATTATTTATTTCATTAAGAAGGAAAG (double strand) [pilA promoter],binds
2,GCGCATAGCTGTTATAAGAATCCTCAATTCATTTCAATTAATGAGTATTCAGTCAATTAATAGAGCGATTTACTTCATAAAACCATTTTATTTTTATGGACTTAGCTCAAGAAATGACAGCATTATTAACTAATTTTAATAATTTGAGGAATGCATCAATAACTATTTCATATAAACACGATTTACTGTTGACTAAGTTTTATAAATATCGATGATCAGCAAGTTAAACTGAACGAAGTTTTATTCATTTGAAAGCGCAAGAACATGACTATCGTCGACCTGCAGGCA (double strand) [scrG promoter (PscrG)],binds
3,CGCTCTATAATGCTGACCCTTTTATCAATACTGTACTTATTTCCACAACAAAAAAGCGTACAGTTATTTACTTTTTTACCTTTAACTTGCTGTGAAAATAATATCGTCGACCTGCAGGCA (double strand) [mshA promoter],binds
